Data published in patent publication CN114397452A (dated 2022).

Assays:
[1] = molecular target: SARS-CoV RBD蛋白 (SARS-CoV, UniProt P59594 306-527)
[2] = molecular target: 冠状病毒RaTG13 RBD蛋白 (coronavirus RaTG13)

| Binder | Kd [1] [nM] | Kd [2] [nM] |
| --- | --- | --- |
| IMCAS-364 scFv (scFv, V domains shown) VH: QVQLQESGGGVVQPGRSLRLSCAASGFTFSRYGMHWVRQAPGKGLEWVAVIWYDGSNKYYADSVKGRFTISRDNSKNTLYLQMNSLRADDTAVYYCAKQEGTYCSGGSCYSGLDYWGQGTLVTVSS VL: not shown | 8.17 | – |
| IMCAS-72 scFv (scFv, V domains shown) VH: QVQLVESGGGLVQPGGSLRLSCAASGFTFSSYGMHWVRQAPGKGLEWVAVISYDGSDKYYADSVKGRFTISRDNSKNTLYLQMNSLRAEDTAVYYCARDRDRFGDQGGWFDPWGQGTLVTVSS VL: not shown | – | 6.21 |
